The values that follow come from patent US8445635B2, “Modified H2 relaxin for tumor suppression” (Armour Therapeutics Inc., priority 2006, dated 2013).

The target in assay [1] is T1, relaxin receptors on THP-1 cells (Homo sapiens, UniProt Q9HBX9).
T1 sequence (Q9HBX9 1-757): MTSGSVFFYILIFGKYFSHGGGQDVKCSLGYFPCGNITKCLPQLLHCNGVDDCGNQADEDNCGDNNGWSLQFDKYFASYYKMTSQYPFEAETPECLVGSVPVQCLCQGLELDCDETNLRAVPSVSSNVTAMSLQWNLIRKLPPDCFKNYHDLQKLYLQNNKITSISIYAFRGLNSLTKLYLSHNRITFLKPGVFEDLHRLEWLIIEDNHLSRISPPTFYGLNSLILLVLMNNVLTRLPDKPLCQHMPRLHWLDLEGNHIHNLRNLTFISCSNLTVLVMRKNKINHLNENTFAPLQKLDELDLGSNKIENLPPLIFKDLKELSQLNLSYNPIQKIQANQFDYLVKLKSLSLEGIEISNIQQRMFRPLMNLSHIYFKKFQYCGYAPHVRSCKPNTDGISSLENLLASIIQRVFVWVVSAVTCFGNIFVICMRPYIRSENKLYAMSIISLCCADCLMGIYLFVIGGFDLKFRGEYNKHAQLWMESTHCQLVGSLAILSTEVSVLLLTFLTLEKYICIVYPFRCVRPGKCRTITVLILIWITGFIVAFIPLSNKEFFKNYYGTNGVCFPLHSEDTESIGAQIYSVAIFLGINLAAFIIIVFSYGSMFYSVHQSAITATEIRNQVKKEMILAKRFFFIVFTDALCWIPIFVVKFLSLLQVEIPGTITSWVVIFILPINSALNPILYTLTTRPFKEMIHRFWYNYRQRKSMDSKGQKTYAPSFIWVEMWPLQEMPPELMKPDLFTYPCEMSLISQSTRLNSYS
The assay is described as follows: THP-1 cAMP bioassay. The conditions noted are these: THP-1 and PC3-Luc cell cultures.
Description: To confirm the biological activity of the H2 and ΔH2 relaxins, the cAMP Biotrak E1A System was employed (Amersham Biosciences) as described before (Parsell, D. A., Mak, J. Y., Amento, E P., Unemori, E. N. 1996. Relaxin binds to and elicits a response from cells of the human monocytic cell line, THP-1. J Biol Chem. 271:27936-41; Silvertown, J. D., Geddes, B. J., Summerlee, A. J. 2003. Adenovirus mediated expression of human prorelaxin promotes the invasive potential of canine mammary cancer cells. Endocrinology. 144:3683-91). For measuring bioactivity from CM, 40 μL from each concentrated CM sample was added to THP-1 cells. For measuring cAMP levels directly from the LV-infected PC3-Luc cells, 1×10^5 cells were seeded in a 96-well plate and equilibrated for 2 h before cAMP was measured as described (Parsell, D. A., Mak, J. Y., Amento, E P., Unemori, E. N. 1996. Relaxin binds to and elicits a response from cells of the human monocytic cell line, THP-1. J Biol Chem. 271:27936-41; Silvertown, J. D., Geddes, B. J., Summerlee, A. J. 2003. Adenovirus-mediated expression of human prorelaxin promotes the invasive potential of canine mammary cancer cells. Endocrinology. 144:3683-91). The THP-1 cAMP assay was also adapted for an H2 relaxin competitive assay. […]

Another assay concerns the target T2, LGR7 (Homo sapiens, UniProt Q9HBX9).
T2 construct: expressed in transfected cells; host or cells: 293T-LGR7 (293T human embryonic kidney cells)
T2 sequence (Q9HBX9 1-757): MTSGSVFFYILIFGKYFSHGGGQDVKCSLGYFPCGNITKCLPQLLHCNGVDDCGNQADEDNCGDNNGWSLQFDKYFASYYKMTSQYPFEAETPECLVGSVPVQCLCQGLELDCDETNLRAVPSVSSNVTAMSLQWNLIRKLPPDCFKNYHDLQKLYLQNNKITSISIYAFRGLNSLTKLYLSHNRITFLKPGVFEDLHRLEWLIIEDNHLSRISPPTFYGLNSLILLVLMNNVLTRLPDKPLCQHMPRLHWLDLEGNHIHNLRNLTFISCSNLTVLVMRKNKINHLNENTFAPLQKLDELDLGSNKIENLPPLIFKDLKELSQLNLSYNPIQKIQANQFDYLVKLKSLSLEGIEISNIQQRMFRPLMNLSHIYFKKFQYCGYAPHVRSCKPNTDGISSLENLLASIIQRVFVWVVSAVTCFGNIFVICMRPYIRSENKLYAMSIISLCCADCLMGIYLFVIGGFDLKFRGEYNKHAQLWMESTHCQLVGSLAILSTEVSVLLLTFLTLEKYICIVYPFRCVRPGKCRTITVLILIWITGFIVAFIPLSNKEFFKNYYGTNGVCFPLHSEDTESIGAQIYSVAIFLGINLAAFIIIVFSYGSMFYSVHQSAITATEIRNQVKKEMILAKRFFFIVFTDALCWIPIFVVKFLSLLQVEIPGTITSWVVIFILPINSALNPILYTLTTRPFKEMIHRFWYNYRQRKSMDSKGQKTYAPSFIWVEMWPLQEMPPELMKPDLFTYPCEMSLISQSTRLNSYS
Put plainly: Flow cytometry-based relaxin binding assay on 293T-LGR7 cells, competed with bH2. The conditions noted are these: unconcentrated CM, WT H2 1 and 4 ng/mL, ΔH2 1 ng/mL, competed with 5 ng bH2. As for the experimental part: To optimize collection of recombinant ΔH2 peptide for this assay, single-cell clones of LV-infected 293T cell cultures were isolated. Clones were confirmed by flow cytometry measuring eGFP fluorescence and selected based on highest expression. 293T-eGFP#3, 293TΔH2/eGFP#6, 293T-H2/eGFP#3 cell cultures were seeded in 15-cam plates in complete medium overnight, refreshed with Dulbecco's Modified Eagle Medium (DMEM) medium containing 2% FCS after 24 h, and incubated for an additional 48 h. At this point, CM were collected for assays. H2 relaxin levels in unconcentrated CM from 293T-eGFP#3, 293TΔH2/eGFP#6, 293T-H2/eGFP#3 cell cultures were approximated by the H2 ELISA to be 0, 1, and 4 ng/mL (data not shown).
293T-LGR7 cells were collected, washed with PBS supplemented with 1% FCS (PBS-1%), and resuspended at 1.67×10^7 cells/mL. For each sample, 30 μl (0.5×10^6 […]) were added per 5 mL polystyrene round-bottom Falcon tube (Becton Dickinson Labware, Franklin Lakes, N.J., USA). Control samples contained 50 μL of either PBS-1% containing 5 ng of rH2 or 50 μL of PBS-1% alone. […] Samples were incubated for 15 min at RT. […] Cells were washed twice with 500 μL of PBA-1% and analyzed on a FACSCalibur flow cytometer) BDBiosciences, Franklin Lakes, N. J., USA).
On the technique in general: Flow cytometry measures light scatter and fluorescence of single cells or particles in a stream.

A further assay deals with relaxin receptor. As to conditions: Bullesbach 1992; cited from earlier work.
Assay [2] can be described thus: Plasma osmolality of PC3-Luc tumor-bearing mice at week 11. It counts as in vivo, mouse. As to conditions: week 11, P=0.04. As to the method: To determine whether H2 and ΔH2 relaxins secreted from the PC3-Luc tumor xenografts elicited a systemic physiological response, plasma osmolality was measured from the animals at the termination of the study (FIG. 4D). Plasma osmolality readings obtained from PC3-H2/eGFP, PC3-Luc-eGFP and PC3-Luc-ΔH2/eGFP animals averaged 330±4.6 […] and 342±4.6 mmol/L, respectively. […] Overexpression of ΔH2 relaxin in the tumor microenvironment may inhibit endogenous H2 relaxin progrowth signals to tumor cells or tumor-infiltrated ECs.
Six-to-eight week old male NOD/SCID mice (The Jackson Laboratory; Bar Harbour, Me.) wore maintained at the Animal Resource Facility (PMH, Toronto, Canada) under an approved UHN protocol. […] Tumors were measured weekly by calipers and tumor volume approximated (l×w×d), as described previously (Silvertown, J. D., Ng, J., Sato, T., Summerlee, A. J., Medin, J. A. 2006. H2 relaxl; overexpression increases in vivo prostate xenograft tumor growth and angiogenesis. Iift J Cancer. 118:62-73). […] For plasma osmolality readings, approximately 100-200 μL of blood was collected in heparin (heparin sodium, 1000 USP units/mL; Hepalean) and sent for analysis (Animal Health Laboratory, Department of Pathobiology, University of Guelph).

B1: ΔH2: H2 relaxin with lysine substitution at B13 and B17 of the receptor binding domain, B20 Ile (protein, UniProt P04090 1-185, looked up, variant R13K R17K)
chain: MPRLFFFHLLGVCLLLNQFSRAVADSWMEEVIKLCGKELVKAQIAICGMSTWSKRSLSQEDAPQTPRPVAEIVPSFINKDTETINMMSEFVANLPQELKLTLSEMQPALPQLQQHVPVLKDSSLLFEEFKKLIRNRQSEAADSSPSELKYLGLDTHSRKKRQLYSALANKCCHVGCTKRSLARFC
modifications: B-chain numbering
Turning to B1, in assay [1], the “Bioactivity by cAMP assays” value is “significantly impaired”. The receptor affinity entry with LGR7 is “low”. Moreover, in the assay on relaxin receptor, the biological activity entry is “biologically inactive” and the “lower affinity for receptor binding than wild type H2 relaxin” value is reported as around 2200 fold. Moreover, the “plasma osmolality increase compared to wild-type H2-expressing tumor animals” value in assay [2] was “approximately 12 mmol/L”.
